Data: paper PMC3069497
Positions count from the first letter of the chain named. Numbers in names are those of the source.

T1: Peptide C (bovine)
T1 sequence (peptide): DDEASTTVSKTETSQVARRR

B1: bovine GRK1 C-terminally truncated at residue 535 and tagged with hexahistidine (GRK1_(535)H6), wild type (enzyme)
chain: MDFGSLETVVANSAFIAARGSFDASSGPASRDRKYLARLKLPPLSKCEALRESLDLGFEGMCLEQPIGKRLFQQFLRTHEQHGPALQLWKDIEDYDTADDALRPQKAQALRAAYLEPQAQLFCSFLDAETVARARAGAGDGLFQPLLRAVLAHLGQAPFQEFLDSLYFLRFLQWKWLEAQPMGEDWFLDFRVLGRGGFGEVFACQMKATGKLYACKKLNKKRLKKRKGYQGAMVEKKILAKVHSRFIVSLAYAFETKTDLCLVMTIMNGGDIRYHIYNVDEDNPGFQEPRAIFYTAQIVSGLEHLHQRNIIYRDLKPENVLLDDDGNVRISDLGLAVELKAGQTKTKGYAGTPGFMAPELLLGEEYDFSVDYFALGVTLYEMIAARGPFRARGEKVENKELKQRVLEQAVTYPDKFSPASKDFCEALLQKDPEKRLGFRDGSCDGLRTHPLFRDISWRQLEAGMLTPPFVPDSRTVYAKNIQDVGAFSTVKGVAFEKADTEFFQEFASGTCPIPWQEEMIETGVFGDLNVWRPDG
B2: GRK1_(535)H6 E7A (enzyme)
chain: B1 chain with E7A
B3: GRK1_(535)H6 V10A (enzyme)
chain: B1 chain with V10A
B4: GRK1_(535)H6 A18E (enzyme)
chain: B1 chain with A18E
B5: GRK1_(535)H6 V9A (enzyme)
chain: B1 chain with V9A
B6: GRK1_(535)H6 I16A (enzyme)
chain: B1 chain with I16A
B7: GRK1_(535)H6 A11E (enzyme)
chain: B1 chain with A11E
B8: GRK1_(535)H6 N12A (enzyme)
chain: B1 chain with N12A
B9: GRK1_(535)H6 L6A (enzyme)
chain: B1 chain with L6A
B10: GRK1_(535)H6 F15A (enzyme)
chain: B1 chain with F15A

target: bovine rhodopsin, photoactivated (Rho*) (bovine) (UniProt P02699)
Sequence of UniProt P02699 (P02699 whole entry): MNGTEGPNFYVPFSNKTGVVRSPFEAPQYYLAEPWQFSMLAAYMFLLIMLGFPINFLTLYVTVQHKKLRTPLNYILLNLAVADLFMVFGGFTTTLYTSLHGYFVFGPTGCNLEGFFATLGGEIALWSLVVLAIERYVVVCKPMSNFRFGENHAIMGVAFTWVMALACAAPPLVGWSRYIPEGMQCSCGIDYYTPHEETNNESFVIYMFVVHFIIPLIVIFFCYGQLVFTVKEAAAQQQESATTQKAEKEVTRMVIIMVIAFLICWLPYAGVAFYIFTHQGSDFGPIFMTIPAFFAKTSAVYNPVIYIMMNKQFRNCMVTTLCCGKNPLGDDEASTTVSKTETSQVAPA

KM of ROS (Rho*) phosphorylation [µM] | Binder
3.4 | B1
13 | B2
21 | B3
6.1 | B4
18 | B5
9.5 | B6
8.8 | B7
20 | B8
12 | B9
11 | B10

target: T1, Peptide C (bovine)

KM of peptide C phosphorylation [µM] | Binder
320 | B1
410 | B2
390 | B3
410 | B4
350 | B5
220 | B6
310 | B7
500 | B8
280 | B9
350 | B10

target: bovine rhodopsin, photoactivated (Rho*) (bovine) (UniProt P02699); remark: another data set of the same source

decrease of the magnitude of the fluorescence change of Meta II decay [%] | Binder
35 | B1
